Article PMC6237851, “A tumor-targeted trimeric 4-1BB-agonistic antibody induces potent anti-tumor immunity without systemic toxicity” (Nature Communications, 2018)

Target: the molecule itself
Experiment: SDS-PAGE, reducing against non-reducing; m4-1BBL alone; about 40 kDa in reducing and about 70 kDa in non-reducing conditions (Supplementary Figure 3a)

B1: recombinant soluble mouse 4-1BBL (ligand, UniProt P41274 104-309, looked up)
chain: RTEPRPALTITTSPNLGTRENNADQVTPVSHIGCPNTTQQGSPVFAKLLAKNQASLCNTTLNWHSQDGAGSSYLSQGLRYEEDKKELVVDSPGLYYVFLELKLSPTFTNTGHKVQGWVSLVLQAKPQVDDFDNLALTVELFPCSMENKLVDRSWSQLLLLKAGHRLSVGLRAYLHGAQDAYRDWELSYPNTTSFGLFLVKPDNPWE
notes: 4-1BB ligand (4-1BBL, TNFSF9), mouse, recombinant soluble form; For the RICS imaging it was labelled with CF488A (Mix-n-Stain kit); also called m4-1BBL; 4-1BB-Ligand; source: bought: Biolegend (cat#754402)
- stoichiometry N: 3
